B1: GpH7-A5/GpH7-B3 variant L328_19Q/GpL16-k0 (antibody, human IgG1, kappa)
heavy 1: not shown
heavy 2: not shown
light: DIVMTQSPLSLPVTPGEPASISCQASESLVHSNRNTYLHWYLQKPGQSPQLLIYKVSNRFSGVPDRFSGSGSGTDFTLKISRVEAEDVGVYYCSQNTHVPPTFGQGTKVEIERTVAAPSVFIFPPSDEQLKSGTASVVCLLNNFYPREAKVQWKVDNALQSGNSQESVTEQDSKDSTYSLSSTLTLSKADYEKHKVYACEVTHQGLSSPVTKSFNRGEC
notes: He Ab; copies: 1 + 1 + 2
B2: GpH7-A5/GpH7-B3 variant P271_08L/GpL16-k0 (antibody, human IgG1, kappa)
heavy 1: not shown
heavy 2: not shown
light: DIVMTQSPLSLPVTPGEPASISCQASESLVHSNRNTYLHWYLQKPGQSPQLLIYKVSNRFSGVPDRFSGSGSGTDFTLKISRVEAEDVGVYYCSQNTHVPPTFGQGTKVEIERTVAAPSVFIFPPSDEQLKSGTASVVCLLNNFYPREAKVQWKVDNALQSGNSQESVTEQDSKDSTYSLSSTLTLSKADYEKHKVYACEVTHQGLSSPVTKSFNRGEC
notes: He Ab; copies: 1 + 1 + 2
B3: GpH7-A5/GpH7-B3 variant P238_15Y/GpL16-k0 (antibody, human IgG1, kappa)
heavy 1: not shown
heavy 2: not shown
light: DIVMTQSPLSLPVTPGEPASISCQASESLVHSNRNTYLHWYLQKPGQSPQLLIYKVSNRFSGVPDRFSGSGSGTDFTLKISRVEAEDVGVYYCSQNTHVPPTFGQGTKVEIERTVAAPSVFIFPPSDEQLKSGTASVVCLLNNFYPREAKVQWKVDNALQSGNSQESVTEQDSKDSTYSLSSTLTLSKADYEKHKVYACEVTHQGLSSPVTKSFNRGEC
notes: He Ab; copies: 1 + 1 + 2
B4: GpH7-A5/GpH7-B3 variant P271_13S/GpL16-k0 (antibody, human IgG1, kappa)
heavy 1: not shown
heavy 2: not shown
light: DIVMTQSPLSLPVTPGEPASISCQASESLVHSNRNTYLHWYLQKPGQSPQLLIYKVSNRFSGVPDRFSGSGSGTDFTLKISRVEAEDVGVYYCSQNTHVPPTFGQGTKVEIERTVAAPSVFIFPPSDEQLKSGTASVVCLLNNFYPREAKVQWKVDNALQSGNSQESVTEQDSKDSTYSLSSTLTLSKADYEKHKVYACEVTHQGLSSPVTKSFNRGEC
notes: He Ab; copies: 1 + 1 + 2
B5: GpH7-A5/GpH7-B3 variant N325_09D/GpL16-k0 (antibody, human IgG1, kappa)
heavy 1: not shown
heavy 2: not shown
light: DIVMTQSPLSLPVTPGEPASISCQASESLVHSNRNTYLHWYLQKPGQSPQLLIYKVSNRFSGVPDRFSGSGSGTDFTLKISRVEAEDVGVYYCSQNTHVPPTFGQGTKVEIERTVAAPSVFIFPPSDEQLKSGTASVVCLLNNFYPREAKVQWKVDNALQSGNSQESVTEQDSKDSTYSLSSTLTLSKADYEKHKVYACEVTHQGLSSPVTKSFNRGEC
notes: He Ab; copies: 1 + 1 + 2
B6: GpH7-A5/GpH7-B3 variant P271_11K/GpL16-k0 (antibody, human IgG1, kappa)
heavy 1: not shown
heavy 2: not shown
light: DIVMTQSPLSLPVTPGEPASISCQASESLVHSNRNTYLHWYLQKPGQSPQLLIYKVSNRFSGVPDRFSGSGSGTDFTLKISRVEAEDVGVYYCSQNTHVPPTFGQGTKVEIERTVAAPSVFIFPPSDEQLKSGTASVVCLLNNFYPREAKVQWKVDNALQSGNSQESVTEQDSKDSTYSLSSTLTLSKADYEKHKVYACEVTHQGLSSPVTKSFNRGEC
notes: He Ab; copies: 1 + 1 + 2
B7: GpH7-A5/GpH7-B3 variant P271_12R/GpL16-k0 (antibody, human IgG1, kappa)
heavy 1: not shown
heavy 2: not shown
light: DIVMTQSPLSLPVTPGEPASISCQASESLVHSNRNTYLHWYLQKPGQSPQLLIYKVSNRFSGVPDRFSGSGSGTDFTLKISRVEAEDVGVYYCSQNTHVPPTFGQGTKVEIERTVAAPSVFIFPPSDEQLKSGTASVVCLLNNFYPREAKVQWKVDNALQSGNSQESVTEQDSKDSTYSLSSTLTLSKADYEKHKVYACEVTHQGLSSPVTKSFNRGEC
notes: He Ab; copies: 1 + 1 + 2
B8: GpH7-A5/GpH7-B3 variant P271_07I/GpL16-k0 (antibody, human IgG1, kappa)
heavy 1: not shown
heavy 2: not shown
light: DIVMTQSPLSLPVTPGEPASISCQASESLVHSNRNTYLHWYLQKPGQSPQLLIYKVSNRFSGVPDRFSGSGSGTDFTLKISRVEAEDVGVYYCSQNTHVPPTFGQGTKVEIERTVAAPSVFIFPPSDEQLKSGTASVVCLLNNFYPREAKVQWKVDNALQSGNSQESVTEQDSKDSTYSLSSTLTLSKADYEKHKVYACEVTHQGLSSPVTKSFNRGEC
notes: He Ab; copies: 1 + 1 + 2
B9: GpH7-A5/GpH7-B3 variant P271_01G/GpL16-k0 (antibody, human IgG1, kappa)
heavy 1: not shown
heavy 2: not shown
light: DIVMTQSPLSLPVTPGEPASISCQASESLVHSNRNTYLHWYLQKPGQSPQLLIYKVSNRFSGVPDRFSGSGSGTDFTLKISRVEAEDVGVYYCSQNTHVPPTFGQGTKVEIERTVAAPSVFIFPPSDEQLKSGTASVVCLLNNFYPREAKVQWKVDNALQSGNSQESVTEQDSKDSTYSLSSTLTLSKADYEKHKVYACEVTHQGLSSPVTKSFNRGEC
notes: He Ab; copies: 1 + 1 + 2
B10: GpH7-A5/GpH7-B3 variant P271_04F/GpL16-k0 (antibody, human IgG1, kappa)
heavy 1: not shown
heavy 2: not shown
light: DIVMTQSPLSLPVTPGEPASISCQASESLVHSNRNTYLHWYLQKPGQSPQLLIYKVSNRFSGVPDRFSGSGSGTDFTLKISRVEAEDVGVYYCSQNTHVPPTFGQGTKVEIERTVAAPSVFIFPPSDEQLKSGTASVVCLLNNFYPREAKVQWKVDNALQSGNSQESVTEQDSKDSTYSLSSTLTLSKADYEKHKVYACEVTHQGLSSPVTKSFNRGEC
notes: He Ab; copies: 1 + 1 + 2
B11: GpH7-A5/GpH7-B3 variant P271_06M/GpL16-k0 (antibody, human IgG1, kappa)
heavy 1: not shown
heavy 2: not shown
light: DIVMTQSPLSLPVTPGEPASISCQASESLVHSNRNTYLHWYLQKPGQSPQLLIYKVSNRFSGVPDRFSGSGSGTDFTLKISRVEAEDVGVYYCSQNTHVPPTFGQGTKVEIERTVAAPSVFIFPPSDEQLKSGTASVVCLLNNFYPREAKVQWKVDNALQSGNSQESVTEQDSKDSTYSLSSTLTLSKADYEKHKVYACEVTHQGLSSPVTKSFNRGEC
notes: He Ab; copies: 1 + 1 + 2
B12: GpH7-A5/GpH7-B3 variant P238_09D/GpL16-k0 (antibody, human IgG1, kappa)
heavy 1: not shown
heavy 2: not shown
light: DIVMTQSPLSLPVTPGEPASISCQASESLVHSNRNTYLHWYLQKPGQSPQLLIYKVSNRFSGVPDRFSGSGSGTDFTLKISRVEAEDVGVYYCSQNTHVPPTFGQGTKVEIERTVAAPSVFIFPPSDEQLKSGTASVVCLLNNFYPREAKVQWKVDNALQSGNSQESVTEQDSKDSTYSLSSTLTLSKADYEKHKVYACEVTHQGLSSPVTKSFNRGEC
notes: He Ab; copies: 1 + 1 + 2
B13: GpH7-A5/GpH7-B3 variant P271_02A/GpL16-k0 (antibody, human IgG1, kappa)
heavy 1: not shown
heavy 2: not shown
light: DIVMTQSPLSLPVTPGEPASISCQASESLVHSNRNTYLHWYLQKPGQSPQLLIYKVSNRFSGVPDRFSGSGSGTDFTLKISRVEAEDVGVYYCSQNTHVPPTFGQGTKVEIERTVAAPSVFIFPPSDEQLKSGTASVVCLLNNFYPREAKVQWKVDNALQSGNSQESVTEQDSKDSTYSLSSTLTLSKADYEKHKVYACEVTHQGLSSPVTKSFNRGEC
notes: He Ab; copies: 1 + 1 + 2
B14: GpH7-A5/GpH7-B3 variant P271_03V/GpL16-k0 (antibody, human IgG1, kappa)
heavy 1: not shown
heavy 2: not shown
light: DIVMTQSPLSLPVTPGEPASISCQASESLVHSNRNTYLHWYLQKPGQSPQLLIYKVSNRFSGVPDRFSGSGSGTDFTLKISRVEAEDVGVYYCSQNTHVPPTFGQGTKVEIERTVAAPSVFIFPPSDEQLKSGTASVVCLLNNFYPREAKVQWKVDNALQSGNSQESVTEQDSKDSTYSLSSTLTLSKADYEKHKVYACEVTHQGLSSPVTKSFNRGEC
notes: He Ab; copies: 1 + 1 + 2
B15: GpH7-A5/GpH7-B3 variant P271_10E/GpL16-k0 (antibody, human IgG1, kappa)
heavy 1: not shown
heavy 2: not shown
light: DIVMTQSPLSLPVTPGEPASISCQASESLVHSNRNTYLHWYLQKPGQSPQLLIYKVSNRFSGVPDRFSGSGSGTDFTLKISRVEAEDVGVYYCSQNTHVPPTFGQGTKVEIERTVAAPSVFIFPPSDEQLKSGTASVVCLLNNFYPREAKVQWKVDNALQSGNSQESVTEQDSKDSTYSLSSTLTLSKADYEKHKVYACEVTHQGLSSPVTKSFNRGEC
notes: He Ab; copies: 1 + 1 + 2
B16: GpH7-A5/GpH7-B3 variant N325_13S/GpL16-k0 (antibody, human IgG1, kappa)
heavy 1: not shown
heavy 2: not shown
light: DIVMTQSPLSLPVTPGEPASISCQASESLVHSNRNTYLHWYLQKPGQSPQLLIYKVSNRFSGVPDRFSGSGSGTDFTLKISRVEAEDVGVYYCSQNTHVPPTFGQGTKVEIERTVAAPSVFIFPPSDEQLKSGTASVVCLLNNFYPREAKVQWKVDNALQSGNSQESVTEQDSKDSTYSLSSTLTLSKADYEKHKVYACEVTHQGLSSPVTKSFNRGEC
notes: He Ab; copies: 1 + 1 + 2
B17: GpH7-A5/GpH7-B3 variant P238_10E/GpL16-k0 (antibody, human IgG1, kappa)
heavy 1: not shown
heavy 2: not shown
light: DIVMTQSPLSLPVTPGEPASISCQASESLVHSNRNTYLHWYLQKPGQSPQLLIYKVSNRFSGVPDRFSGSGSGTDFTLKISRVEAEDVGVYYCSQNTHVPPTFGQGTKVEIERTVAAPSVFIFPPSDEQLKSGTASVVCLLNNFYPREAKVQWKVDNALQSGNSQESVTEQDSKDSTYSLSSTLTLSKADYEKHKVYACEVTHQGLSSPVTKSFNRGEC
notes: He Ab; copies: 1 + 1 + 2
B18: GpH7-A5/GpH7-B3 variant P271_14T/GpL16-k0 (antibody, human IgG1, kappa)
heavy 1: not shown
heavy 2: not shown
light: DIVMTQSPLSLPVTPGEPASISCQASESLVHSNRNTYLHWYLQKPGQSPQLLIYKVSNRFSGVPDRFSGSGSGTDFTLKISRVEAEDVGVYYCSQNTHVPPTFGQGTKVEIERTVAAPSVFIFPPSDEQLKSGTASVVCLLNNFYPREAKVQWKVDNALQSGNSQESVTEQDSKDSTYSLSSTLTLSKADYEKHKVYACEVTHQGLSSPVTKSFNRGEC
notes: He Ab; copies: 1 + 1 + 2
B19: GpH7-A5/GpH7-B3 variant P238_08L/GpL16-k0 (antibody, human IgG1, kappa)
heavy 1: not shown
heavy 2: not shown
light: DIVMTQSPLSLPVTPGEPASISCQASESLVHSNRNTYLHWYLQKPGQSPQLLIYKVSNRFSGVPDRFSGSGSGTDFTLKISRVEAEDVGVYYCSQNTHVPPTFGQGTKVEIERTVAAPSVFIFPPSDEQLKSGTASVVCLLNNFYPREAKVQWKVDNALQSGNSQESVTEQDSKDSTYSLSSTLTLSKADYEKHKVYACEVTHQGLSSPVTKSFNRGEC
notes: He Ab; copies: 1 + 1 + 2
B20: GpH7-A5/GpH7-B3 variant N325_16H/GpL16-k0 (antibody, human IgG1, kappa)
heavy 1: not shown
heavy 2: not shown
light: DIVMTQSPLSLPVTPGEPASISCQASESLVHSNRNTYLHWYLQKPGQSPQLLIYKVSNRFSGVPDRFSGSGSGTDFTLKISRVEAEDVGVYYCSQNTHVPPTFGQGTKVEIERTVAAPSVFIFPPSDEQLKSGTASVVCLLNNFYPREAKVQWKVDNALQSGNSQESVTEQDSKDSTYSLSSTLTLSKADYEKHKVYACEVTHQGLSSPVTKSFNRGEC
notes: He Ab; copies: 1 + 1 + 2
B21: GpH7-A5/GpH7-B3 variant P271_09D/GpL16-k0 (antibody, human IgG1, kappa)
heavy 1: not shown
heavy 2: not shown
light: DIVMTQSPLSLPVTPGEPASISCQASESLVHSNRNTYLHWYLQKPGQSPQLLIYKVSNRFSGVPDRFSGSGSGTDFTLKISRVEAEDVGVYYCSQNTHVPPTFGQGTKVEIERTVAAPSVFIFPPSDEQLKSGTASVVCLLNNFYPREAKVQWKVDNALQSGNSQESVTEQDSKDSTYSLSSTLTLSKADYEKHKVYACEVTHQGLSSPVTKSFNRGEC
notes: He Ab; copies: 1 + 1 + 2
B22: GpH7-A5/GpH7-B3 variant P238_19Q/GpL16-k0 (antibody, human IgG1, kappa)
heavy 1: not shown
heavy 2: not shown
light: DIVMTQSPLSLPVTPGEPASISCQASESLVHSNRNTYLHWYLQKPGQSPQLLIYKVSNRFSGVPDRFSGSGSGTDFTLKISRVEAEDVGVYYCSQNTHVPPTFGQGTKVEIERTVAAPSVFIFPPSDEQLKSGTASVVCLLNNFYPREAKVQWKVDNALQSGNSQESVTEQDSKDSTYSLSSTLTLSKADYEKHKVYACEVTHQGLSSPVTKSFNRGEC
notes: He Ab; copies: 1 + 1 + 2

What follows are binders tested against T1, FcγRIIIa extracellular domain, C-terminal His tag (human, UniProt P08637 17-208) (assay: SPR, binding activity relative to GpH7-A5/GpH7-B3/GpL16-k0 (=100)).
T1 construct: extracellular domain; also called 3a
T1 sequence (P08637 other isoform, or with tags, fused parts or gaps): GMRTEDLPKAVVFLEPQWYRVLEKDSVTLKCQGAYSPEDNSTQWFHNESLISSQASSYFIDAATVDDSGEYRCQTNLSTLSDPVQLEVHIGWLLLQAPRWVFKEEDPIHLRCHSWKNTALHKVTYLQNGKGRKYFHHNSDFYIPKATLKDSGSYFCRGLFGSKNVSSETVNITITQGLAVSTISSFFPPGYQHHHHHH

Binder | He/Con 3a [%]
B1 | 83.4
B2 | 74.5
B3 | 61
B4 | 79.8
B5 | 53
B6 | 92.5
B7 | 87.6
B8 | 80.2
B9 | 119
B10 | 65.6
B11 | 74
B12 | 100
B13 | 83.7
B14 | 73.5
B15 | 98.2
B16 | 71.9
B17 | 98.9
B18 | 59.2
B19 | 71.3
B20 | 68
B21 | 97.7
B22 | 52.7

— US20260167699A1 (Chugai, published 2026)
